Experimental data as given in US20040005630A1 (published 2004).
Numbering of substitutions follows the chain as printed.

Assays:
[1] = biological target: T1, rat CD5 antigen (rat equivalent of CD5) present on rat T cells (rat) (UniProt P51882); assay: flow cytometry of rat spleen cells 3 h after 0.5 mg/kg i.v., PE anti-mouse IgG1 detection
T1 sequence (looked up): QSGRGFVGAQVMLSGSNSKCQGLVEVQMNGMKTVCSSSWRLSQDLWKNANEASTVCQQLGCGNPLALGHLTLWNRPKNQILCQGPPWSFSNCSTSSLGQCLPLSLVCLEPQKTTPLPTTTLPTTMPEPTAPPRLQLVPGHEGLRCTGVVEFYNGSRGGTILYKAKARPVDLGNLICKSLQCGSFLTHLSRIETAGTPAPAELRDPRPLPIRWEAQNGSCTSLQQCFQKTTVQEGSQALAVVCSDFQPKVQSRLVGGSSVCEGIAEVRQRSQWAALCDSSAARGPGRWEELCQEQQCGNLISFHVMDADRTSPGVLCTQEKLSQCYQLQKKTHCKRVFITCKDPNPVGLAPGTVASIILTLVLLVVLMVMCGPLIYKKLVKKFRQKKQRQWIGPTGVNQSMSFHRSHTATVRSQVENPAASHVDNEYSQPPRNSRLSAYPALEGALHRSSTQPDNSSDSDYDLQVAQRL

[2] = biological target: T1, rat CD5 antigen (rat equivalent of CD5) present on rat T cells (rat); assay: flow cytometry of rat blood cells 3 h after 0.5 mg/kg i.v., PE anti-mouse IgG1 detection
[3] = biological target: T1, rat CD5 antigen (rat equivalent of CD5) present on rat T cells (rat); assay: flow cytometry of rat lymph node cells 3 h after 0.5 mg/kg i.v., PE anti-mouse IgG1 detection
[4] = biological target: T1, rat CD5 antigen (rat equivalent of CD5) present on rat T cells (rat); assay: flow cytometry of rat lymph node cells 3 h after 0.5 mg/kg i.v., PE anti-mouse IgG1 detection (isotype matched negative control)
[5] = biological target: T1, rat CD5 antigen (rat equivalent of CD5) present on rat T cells (rat); assay: flow cytometry of rat blood cells 3 h after 0.5 mg/kg i.v., PE anti-mouse IgG1 detection (isotype matched negative control)
[6] = biological target: T1, rat CD5 antigen (rat equivalent of CD5) present on rat T cells (rat); assay: flow cytometry of rat spleen cells 3 h after 0.5 mg/kg i.v., PE anti-mouse IgG1 detection (isotype matched negative control)
[7] = biological target: T2, human CD5 antigen (human, UniProt P06127 25-495); assay: competitive binding on Molt4-M cells, single point at 0.54 nM, competitor 125I-cH65 IgG
T2 construct: whole, on cells; also called gp67; CD5 found on Molt-4M
T2 sequence (looked up): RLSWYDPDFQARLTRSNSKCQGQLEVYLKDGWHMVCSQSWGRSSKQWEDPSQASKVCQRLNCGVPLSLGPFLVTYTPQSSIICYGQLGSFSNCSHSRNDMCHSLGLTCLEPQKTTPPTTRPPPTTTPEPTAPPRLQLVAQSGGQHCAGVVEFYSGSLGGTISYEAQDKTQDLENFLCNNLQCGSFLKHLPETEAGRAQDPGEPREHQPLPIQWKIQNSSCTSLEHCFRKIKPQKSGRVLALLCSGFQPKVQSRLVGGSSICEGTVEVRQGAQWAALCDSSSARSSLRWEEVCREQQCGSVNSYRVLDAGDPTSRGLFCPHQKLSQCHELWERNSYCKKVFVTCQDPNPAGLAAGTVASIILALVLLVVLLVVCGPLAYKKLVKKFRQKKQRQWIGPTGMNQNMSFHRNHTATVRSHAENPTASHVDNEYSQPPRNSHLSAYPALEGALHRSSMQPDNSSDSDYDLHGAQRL
Procedure: Molt4-M cells, which express CD5 on their surface, were plated into 96 well V-bottom plates at a density of 3×10⁵ cells per well and pelleted by centrifugation. The medium was decanted, and 100 μl of purified cH65 IgG at final concentrations from 200 nM to 0.0017 nM (diluted in 3-fold steps) in “BHD” [DMEM (Dulbecco's Modified Eagle's Medium)+1% BSA+10 mM Hepes, pH 7.2] (BHD) was added to each well, followed by 100 μl of ¹²⁵I-cH65 IgG (final concentration=0.1 nM) in BHD. For single point determinations, 50-100 μl of the Centricon® concentrates were added to the wells as follows: hH65 (final concentration=0.54 nM), cH65 (final concentration=0.22 nM), CM+purified cH65 IgG (final concentration=30 nM) and CM alone. These were followed by addition of ¹²⁵I-cH65 IgG (final concentration=0.1 nM). Binding was allowed to proceed for 5 hours at 4° C. At the end of 5 hours, binding was terminated by three washes with ice cold BHD using centrifugation to pellet cells. Radioactivity was determined by solubilizing bound ¹²⁵I-cH65 IgG with 1N NaOH and counting in a Beckman Gamma 8000 (Beckman Instruments, Fullerton, Calif.).

OX19 MoAb (antibody)
% of CD4 cells that are also positive for mouse IgG1 [1]: 84.8% | % of CD8 cells that are also positive for mouse IgG1 [1]: 73.6% | % of CD4 cells that are also positive for mouse IgG1 [2]: 96.2% | % of CD8 cells that are also positive for mouse IgG1 [2]: 70.2% | % of CD4 cells that are also positive for mouse IgG1 [3]: 96.2% | % of CD8 cells that are also positive for mouse IgG1 [3]: 96.8%

B1: MoAb H65 (murine monoclonal antibody produced by cell line XMMLY-H65) (antibody, V domains shown)
VH: QIQLVQSGPELKKPGETVKISCKASGYTFTNYGMNWVKQAPGKGLRWMGWINTHTGEPTYADDFKGRFAFSLETSASTAYLQINNLKNEDTATYFCTRRGYDWYFDVWGAGTTVTVSS
VL: DIKMTQSPSSMYASLGERVTITCKASQDINSYLSWFQQKPGKSPKTLIYRANRLVDGVPSRFSGSGSGQDYSLTISSLDYEDMGIYYCQQYDESPWTFGGGTKLEIK
% of CD4 cells that are also positive for mouse IgG1 [4]: 4.2% | % of CD8 cells that are also positive for mouse IgG1 [4]: 6.5% | % of CD4 cells that are also positive for mouse IgG1 [5]: 6.7% | % of CD8 cells that are also positive for mouse IgG1 [5]: 5.7% | % of CD4 cells that are also positive for mouse IgG1 [6]: 14.8% | % of CD8 cells that are also positive for mouse IgG1 [6]: 20.6%

B2: humanized H65 IgG (low-risk modified H65) (antibody, V domains shown)
VH: QIQLVQSGPGLKKPGGSVRISCAASGYTFTNYGMNWVKQAPGKGLRWMGWINTHTGEPTYADDFKGRFTFSLDTSKSTAYLQINSLRAEDTATYFCTRRGYDWYFDVWGQGTTVTVSS
VL: B1 VL with K3Q, Y12S, E17D, K24R, Q69T, S72T, D79Q, M83F
notes: Whole IgG transiently expressed in CHO-K1 from vectors pING4612 (heavy) and pING4614 (light); Human constant regions; also called hH65; H65 antibody modified according to the methods of the present invention
binding result [7]: binds
